In patent publication US20140274782A1, “AFFINITY REAGENTS AND METHODS FOR DETECTION, PURIFICATION, AND PROTEOMIC ANALYSIS OF METHYLATED PROTEINS” (The Board of Trustees of the Leland Stanford Junior …, priority 2013, published 2014):

T1: G9a and GLP (Homo sapiens, UniProt Q96KQ7+Q9H9B1)
T1 sequence (Q96KQ7 2-1210 limits assumed): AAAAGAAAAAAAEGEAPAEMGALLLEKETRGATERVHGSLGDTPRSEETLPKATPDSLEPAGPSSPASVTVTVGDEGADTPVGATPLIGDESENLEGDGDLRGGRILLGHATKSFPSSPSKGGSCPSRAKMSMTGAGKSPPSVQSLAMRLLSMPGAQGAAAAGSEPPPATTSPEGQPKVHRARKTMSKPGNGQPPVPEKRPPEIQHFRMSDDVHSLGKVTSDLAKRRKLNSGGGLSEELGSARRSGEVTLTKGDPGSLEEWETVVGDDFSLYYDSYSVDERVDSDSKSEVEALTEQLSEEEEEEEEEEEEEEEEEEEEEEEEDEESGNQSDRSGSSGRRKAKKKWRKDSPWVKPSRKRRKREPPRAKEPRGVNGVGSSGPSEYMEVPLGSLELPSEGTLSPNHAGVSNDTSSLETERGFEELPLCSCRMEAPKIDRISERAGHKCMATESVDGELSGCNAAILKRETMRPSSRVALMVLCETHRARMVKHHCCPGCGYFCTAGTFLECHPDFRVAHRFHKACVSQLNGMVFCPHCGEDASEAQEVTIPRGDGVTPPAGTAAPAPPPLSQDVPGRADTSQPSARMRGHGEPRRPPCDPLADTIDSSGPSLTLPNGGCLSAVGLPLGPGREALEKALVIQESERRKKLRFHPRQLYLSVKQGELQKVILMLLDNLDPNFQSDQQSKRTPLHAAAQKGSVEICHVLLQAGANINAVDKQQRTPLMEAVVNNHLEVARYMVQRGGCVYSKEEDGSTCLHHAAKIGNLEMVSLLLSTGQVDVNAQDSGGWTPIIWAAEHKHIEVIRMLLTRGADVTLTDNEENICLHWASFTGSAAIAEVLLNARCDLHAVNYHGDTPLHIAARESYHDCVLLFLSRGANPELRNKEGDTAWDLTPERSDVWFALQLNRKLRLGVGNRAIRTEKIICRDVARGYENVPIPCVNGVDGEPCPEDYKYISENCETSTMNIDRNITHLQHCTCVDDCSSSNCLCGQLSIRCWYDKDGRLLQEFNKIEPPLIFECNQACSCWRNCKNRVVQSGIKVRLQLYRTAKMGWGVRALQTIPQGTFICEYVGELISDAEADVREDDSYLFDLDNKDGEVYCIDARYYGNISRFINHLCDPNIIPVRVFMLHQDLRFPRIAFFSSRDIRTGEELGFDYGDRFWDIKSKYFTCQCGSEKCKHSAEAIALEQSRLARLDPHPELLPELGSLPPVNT
T1 sequence (Q9H9B1 2-1298 limits assumed): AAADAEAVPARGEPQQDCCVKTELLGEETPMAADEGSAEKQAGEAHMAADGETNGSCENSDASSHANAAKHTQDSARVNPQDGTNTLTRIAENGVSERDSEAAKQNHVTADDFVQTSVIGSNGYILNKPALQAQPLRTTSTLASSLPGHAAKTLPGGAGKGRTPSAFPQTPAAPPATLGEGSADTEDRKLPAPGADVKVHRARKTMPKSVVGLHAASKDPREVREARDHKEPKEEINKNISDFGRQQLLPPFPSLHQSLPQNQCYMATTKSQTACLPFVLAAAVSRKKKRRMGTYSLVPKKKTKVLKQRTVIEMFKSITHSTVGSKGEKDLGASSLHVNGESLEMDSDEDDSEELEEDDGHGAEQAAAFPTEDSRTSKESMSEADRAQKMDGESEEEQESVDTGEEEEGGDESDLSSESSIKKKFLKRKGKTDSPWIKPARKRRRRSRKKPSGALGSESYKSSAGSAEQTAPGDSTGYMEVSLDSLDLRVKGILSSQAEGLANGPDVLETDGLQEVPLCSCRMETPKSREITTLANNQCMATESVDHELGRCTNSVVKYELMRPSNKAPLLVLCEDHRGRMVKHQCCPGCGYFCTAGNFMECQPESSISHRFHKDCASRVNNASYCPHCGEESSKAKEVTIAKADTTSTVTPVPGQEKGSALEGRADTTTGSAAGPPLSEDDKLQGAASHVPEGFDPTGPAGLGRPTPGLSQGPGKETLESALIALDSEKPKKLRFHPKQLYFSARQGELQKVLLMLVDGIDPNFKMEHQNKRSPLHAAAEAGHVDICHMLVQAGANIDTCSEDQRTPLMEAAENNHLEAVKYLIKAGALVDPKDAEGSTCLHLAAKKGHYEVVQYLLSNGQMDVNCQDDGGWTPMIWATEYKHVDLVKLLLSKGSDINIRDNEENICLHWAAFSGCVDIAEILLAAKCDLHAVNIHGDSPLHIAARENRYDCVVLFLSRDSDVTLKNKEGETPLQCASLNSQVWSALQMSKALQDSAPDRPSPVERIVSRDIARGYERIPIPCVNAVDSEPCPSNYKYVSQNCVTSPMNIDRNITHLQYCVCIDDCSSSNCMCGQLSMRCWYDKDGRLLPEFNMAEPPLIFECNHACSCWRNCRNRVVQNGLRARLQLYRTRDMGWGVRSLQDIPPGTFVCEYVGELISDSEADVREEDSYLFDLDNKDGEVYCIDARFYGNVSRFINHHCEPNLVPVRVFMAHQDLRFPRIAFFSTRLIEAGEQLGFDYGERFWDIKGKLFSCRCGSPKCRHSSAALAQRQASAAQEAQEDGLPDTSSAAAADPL


How the values were obtained:
[1] = molecular target: T1, G9a and GLP; test: Triple SILAC pull-down after UNC0638 treatment of 293T cells, DMSO/UNC0638 ratio of protein captured by 3×MBT; type: cell-based; design: endogenous in cells; host or cells: HEK 293T; conditions: for Relative to UNC0638 UNC Heavy / Relative to UNC0638 UNC Light: SILAC ratio DMSO/UNC0638 of protein pulled down with 3xMBT; for Relative to UNC0638 UNC Heavy: UNC0638 in heavy SILAC media; for Relative to UNC0638 UNC Light: UNC0638 in light SILAC media; for Relative to UNC0638 Average: average of UNC Light and UNC Heavy experiments;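 as to all read-outs here: mass spectrometry (Q-Exactive) SILAC quantitation, DMSO/UNC0638 ratio computed after subtracting 3×MBTD355N mutant pull-down background, only proteins with at least twofold 3×MBT over mutant signal considered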
[2] = system: 3×MBT domain of L3MBTL1; test: Triple SILAC pull-down, 3xMBT/3xMBTD355N ratio (cytoplasmic, nuclear and chromatin fractions of 293T cells); type: binding, human; conditions: SILAC ratio, pull-down 3xMBT vs 3xMBTD355N; for 3xMBT/D355N UNC Heavy: experiment with UNC0638 in heavy SILAC media; for 3xMBT/D355N UNC Light: experiment with UNC0638 in light SILAC media;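 as to all read-outs here: proteins quantified with MaxQuant, requiring at least two unique peptides and quantification in both label directions, normalized to the mean of proteins from a digested loading control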

| Molecule | Relative to UNC0638 UNC Heavy [1] | Relative to UNC0638 UNC Light [1] | Relative to UNC0638 Average [1] | 3xMBT/D355N UNC Heavy [2] | 3xMBT/D355N UNC Light [2] |
| --- | --- | --- | --- | --- | --- |
| HNRNPF (protein, UniProt P52597 1-415, looked up) Heterogeneous nuclear …: MMLGPEGGEGFVVKLRGLPWSCSVEDVQNFLSDCTIHDGAAGVHFIYTREGRQSGEAFVELGSEDDVKMALKKDRESMGHRYIEVFKSHRTEMDWVLKHSGPNSADSANDGFVRLRGLPFGCTKEEIVQFFSGLEIVPNGITLPVDPEGKITGEAFVQFASQELAEKALGKHKERIGHRYIEVFKSSQEEVRSYSDPPLKFMSVQRPGPYDRPGTARRYIGIVKQAGLERMRPGAYSTGYGGYEEYSGLSDGYGFTTDLFGRDLSYCLSGMYDHRYGDSEFTVQSTTGHCVHMRGLPYKATENDIYNFFSPLNPVRVHIEIGPDGRVTGEADVEFATHEEAVAAMSKDRANMQHRYIELFLNSTTGASNGAYSSQVMQGMGVSAAQATYSGLESQSVSGCYGAGYSGQNSMGGYD | 0.28 log base 2 | −0.02 log base 2 | 0.13 log base 2 | 1.66 log base 2 | 2.25 log base 2 |
| EWSR1 (protein, UniProt Q01844 1-656, looked up) RNA-binding protein EWS: MASTDYSTYSQAAAQQGYSAYTAQPTQGYAQTTQAYGQQSYGTYGQPTDVSYTQAQTTATYGQTAYATSYGQPPTGYTTPTAPQAYSQPVQGYGTGAYDTTTATVTTTQASYAAQSAYGTQPAYPAYGQQPAATAPTRPQDGNKPTETSQPQSSTGGYNQPSLGYGQSNYSYPQVPGSYPMQPVTAPPSYPPTSYSSTQPTSYDQSSYSQQNTYGQPSSYGQQSSYGQQSSYGQQPPTSYPPQTGSYSQAPSQYSQQSSSYGQQSSFRQDHPSSMGVYGQESGGFSGPGENRSMSGPDNRGRGRGGFDRGGMSRGGRGGGRGGMGSAGERGGFNKPGGPMDEGPDLDLGPPVDPDEDSDNSAIYVQGLNDSVTLDDLADFFKQCGVVKMNKRTGQPMIHIYLDKETGKPKGDATVSYEDPPTAKAAVEWFDGKDFQGSKLKVSLARKKPPMNSMRGGLPPREGRGMPPPLRGGPGGPGGPGGPMGRMGGRGGDRGGFPPRGPRGSRGNPSGGGNVQHRAGDWQCPNPGCGNQNFAWRTECNQCKAPKPEGFLPPPFPPPGGDRGRGGPGGMRGGRGGLMDRGGPGGMFRGGRGGDRGGFRGGRGMDRGGFGGGRRGGPGGPPGPLMEQMGGRRGGRGGPGKMDKGEHRQERRDRPY | −0.11 log base 2 | 0.38 log base 2 | 0.14 log base 2 | 2.09 log base 2 | 2.82 log base 2 |
| FTSJD2 (protein, UniProt Q8IYT2 1-770, looked up) Cap-specific mRNA …: MSKCRKTPVQQLASPASFSPDILADIFELFAKNFSYGKPLNNEWQLPDPSEIFTCDHTELNAFLDLKNSLNEVKNLLSDKKLDEWHEHTAFTNKAGKIISHVRKSVNAELCTQAWCKFHEILCSFPLIPQEAFQNGKLNSLHLCEAPGAFIASLNHYLKSHRFPCHWSWVANTLNPYHEANDDLMMIMDDRLIANTLHWWYFGPDNTGDIMTLKFLTGLQNFISSMATVHLVTADGSFDCQGNPGEQEALVSSLHYCEVVTALTTLGNGGSFVLKMFTMFEHCSINLMYLLNCCFDQVHVFKPATSKAGNSEVYVVCLHYKGREAIHPLLSKMTLNFGTEMKRKALFPHHVIPDSFLKRHEECCVFFHKYQLETISENIRLFECMGKAEQEKLNNLRDCAIQYFMQKFQLKHLSRNNWLVKKSSIGCSTNTKWFGQRNKYFKTYNERKMLEALSWKDKVAKGYFNSWAEEHGVYHPGQSSILEGTASNLECHLWHILEGKKLPKVKCSPFCNGEILKTLNEAIEKSLGGAFNLDSKFRPKQQYSCSCHVFSEELIFSELCSLTECLQDEQVVVPSNQIKCLLVGFSTLRNIKMHIPLEVRLLESAELTTFSCSLLHDGDPTYQRLFLDCLLHSLRELHTGDVMILPVLSCFTRFMAGLIFVLHSCFRFITFVCPTSSDPLRTCAVLLCVGYQDLPNPVFRYLQSVNELLSTLLNSDSPQQVLQFVPMEVLLKGALLDFLWDLNAAIAKRHLHFIIQREREEIINSLQLQN | 0.09 log base 2 | 0.17 log base 2 | 0.13 log base 2 | 2.92 log base 2 | 3.09 log base 2 |
| UBA1 (protein, UniProt P22314 2-1058, looked up) Ubiquitin-like …: SSSPLSKKRRVSGPDPKPGSNCSPAQSVLSEVPSVPTNGMAKNGSEADIDEGLYSRQLYVLGHEAMKRLQTSSVLVSGLRGLGVEIAKNIILGGVKAVTLHDQGTAQWADLSSQFYLREEDIGKNRAEVSQPRLAELNSYVPVTAYTGPLVEDFLSGFQVVVLTNTPLEDQLRVGEFCHNRGIKLVVADTRGLFGQLFCDFGEEMILTDSNGEQPLSAMVSMVTKDNPGVVTCLDEARHGFESGDFVSFSEVQGMVELNGNQPMEIKVLGPYTFSICDTSNFSDYIRGGIVSQVKVPKKISFKSLVASLAEPDFVVTDFAKFSRPAQLHIGFQALHQFCAQHGRPPRPRNEEDAAELVALAQAVNARALPAVQQNNLDEDLIRKLAYVAAGDLAPINAFIGGLAAQEVMKACSGKFMPIMQWLYFDALECLPEDKEVLTEDKCLQRQNRYDGQVAVFGSDLQEKLGKQKYFLVGAGAIGCELLKNFAMIGLGCGEGGEIIVTDMDTIEKSNLNRQFLFRPWDVTKLKSDTAAAAVRQMNPHIRVTSHQNRVGPDTERIYDDDFFQNLDGVANALDNVDARMYMDRRCVYYRKPLLESGTLGTKGNVQVVIPFLTESYSSSQDPPEKSIPICTLKNFPNAIEHTLQWARDEFEGLFKQPAENVNQYLTDPKFVERTLRLAGTQPLEVLEAVQRSLVLQRPQTWADCVTWACHHWHTQYSNNIRQLLHNFPPDQLTSSGAPFWSGPKRCPHPLTFDVNNPLHLDYVMAAANLFAQTYGLTGSQDRAAVATFLQSVQVPEFTPKSGVKIHVSDQELQSANASVDDSRLEELKATLPSPDKLPGFKMYPIDFEKDDDSNFHMDFIVAASNLRAENYDIPSADRHKSKLIAGKIIPAIATTTAAVVGLVCLELYKVVQGHRQLDSYKNGFLNLALPFFGFSEPLAAPRHQYYNQEWTLWDRFEVQGLQPNGEEMTLKQFLDYFKTEHKLEITMLSQGVSMLYSFFMPAAKLKERLDQPMTEIVSRVSKRKLGRHVRALVLELCCNDESGEDVEVPYVRYTIR | – | 0.13 log base 2 | 0.13 log base 2 | 0.55 log base 2 | 2.51 log base 2 |
